The record followed here is patent US20120324602A1.

Assay [1] concerns the target expressed protein, similar to At4g22320 (AT5G55210) (Arabidopsis thaliana). Put plainly: TAP-MS, C-terminal GS tag.
The target in assay [2] is unknown, similar to At5g55210 (AT4G22320) (Arabidopsis thaliana). Nature of the assay: TAP-MS, C-terminal GS tag.
Assay [3] addresses OASA1 (O-… (THIOL) LYASE (OAS-TL) ISOFORM A1) (Arabidopsis thaliana). Nature of the assay: TAP-MS, C-terminal GS tag.
For assay [4], the target named is AAC1 (ADP/ATP CARRIER 1) (Arabidopsis thaliana). Put plainly: TAP-MS, C-terminal GS tag.
Assay [5] concerns the target HIS4 (Arabidopsis thaliana). Put plainly: TAP-MS, C-terminal GS tag.
For assay [6], the target named is expressed protein, similar to At3g03460 (AT5G17510) (Arabidopsis thaliana). Nature of the assay: TAP-MS, C-terminal GS tag.
The target of assay [7] is T1, actin-related protein 7 (ARP7) (Arabidopsis thaliana).
T1 sequence (Q8L4Y5 1-363, looked up): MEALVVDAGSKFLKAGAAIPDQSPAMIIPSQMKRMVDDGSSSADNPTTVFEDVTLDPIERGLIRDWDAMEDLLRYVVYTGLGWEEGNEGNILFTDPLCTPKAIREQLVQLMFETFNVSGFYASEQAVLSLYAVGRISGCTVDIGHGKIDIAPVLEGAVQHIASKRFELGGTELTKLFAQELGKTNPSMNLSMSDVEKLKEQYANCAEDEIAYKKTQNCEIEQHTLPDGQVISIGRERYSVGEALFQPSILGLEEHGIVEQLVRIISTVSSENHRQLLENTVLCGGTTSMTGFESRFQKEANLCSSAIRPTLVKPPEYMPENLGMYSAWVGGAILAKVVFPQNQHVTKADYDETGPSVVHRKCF
Nature of the assay: TAP-MS, C-terminal GS tag.

Assay [8] has as its target SWIB complex BAF60b domain-containing protein (Swp73B) (Arabidopsis thaliana). Nature of the assay: TAP-MS, C-terminal GS tag.
Assay [9] deals with T2, GLX1 (GLYOXALASE I HOMOLOG) (Arabidopsis thaliana).
T2 sequence (O65398 2-283, looked up): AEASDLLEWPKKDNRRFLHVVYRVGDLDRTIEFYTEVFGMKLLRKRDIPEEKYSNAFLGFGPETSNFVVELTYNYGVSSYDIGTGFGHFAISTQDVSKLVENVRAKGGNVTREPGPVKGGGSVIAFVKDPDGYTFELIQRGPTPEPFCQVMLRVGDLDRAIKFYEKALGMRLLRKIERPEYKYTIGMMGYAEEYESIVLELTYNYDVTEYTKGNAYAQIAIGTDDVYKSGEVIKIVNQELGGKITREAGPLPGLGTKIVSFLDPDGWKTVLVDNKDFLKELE
Nature of the assay: TAP-MS, C-terminal GS tag.

Assay [10] has as its target T3, actin-related protein 4 (ARP4) (Arabidopsis thaliana).
T3 sequence (Q84M92 1-441, looked up): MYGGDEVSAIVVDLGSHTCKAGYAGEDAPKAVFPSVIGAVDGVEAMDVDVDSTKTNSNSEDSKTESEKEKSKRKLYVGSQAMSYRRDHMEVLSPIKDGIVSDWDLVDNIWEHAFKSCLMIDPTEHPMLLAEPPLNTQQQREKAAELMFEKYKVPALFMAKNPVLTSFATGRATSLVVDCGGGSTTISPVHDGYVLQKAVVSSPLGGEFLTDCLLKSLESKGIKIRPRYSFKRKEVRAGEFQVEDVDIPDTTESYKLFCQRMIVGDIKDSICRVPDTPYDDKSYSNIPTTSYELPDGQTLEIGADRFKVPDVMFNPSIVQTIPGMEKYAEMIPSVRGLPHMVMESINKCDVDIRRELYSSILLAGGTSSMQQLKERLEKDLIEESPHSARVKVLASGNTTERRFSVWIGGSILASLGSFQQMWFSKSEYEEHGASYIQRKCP
Nature of the assay: TAP-MS, C-terminal GS tag.

For assay [11], the target named is Swp73A (Arabidopsis thaliana). Put plainly: TAP-MS, C-terminal GS tag.
Assay [12] concerns the target DNA-binding bromodomain-containing protein, similar to At1g20670 (AT1G76380) (Arabidopsis thaliana). Put plainly: TAP-MS, C-terminal GS tag.
For assay [13], the target named is SNF2 protein (BRM) (Arabidopsis thaliana). Put plainly: TAP-MS, C-terminal GS tag.
The target in assay [14] is DNA-binding bromodomain-containing protein (AT1G20670) (Arabidopsis thaliana). Put plainly: TAP-MS, C-terminal GS tag.
Assay [15] addresses expressed protein, similar to At3g03460 (AT5G17510) (Arabidopsis thaliana). Nature of the assay: TAP-MS, N-terminal GS tag.
In assay [16] the target is T1, actin-related protein 7 (ARP7) (Arabidopsis thaliana). Put plainly: TAP-MS, N-terminal GS tag.
The target in assay [17] is unknown protein, similar to At5g17510 (AT3G03460) (Arabidopsis thaliana). Nature of the assay: TAP-MS, N-terminal GS tag.
The target of assay [18] is expressed protein, similar to At4g22320 (AT5G55210) (Arabidopsis thaliana). Put plainly: TAP-MS, N-terminal GS tag.
The target of assay [19] is SWIB complex BAF60b domain-containing protein (Swp73B) (Arabidopsis thaliana). Nature of the assay: TAP-MS, N-terminal GS tag.
Assay [20] deals with T3, actin-related protein 4 (ARP4) (Arabidopsis thaliana). Put plainly: TAP-MS, N-terminal GS tag.
Assay [21] concerns the target Swp73A (Arabidopsis thaliana). Put plainly: TAP-MS, N-terminal GS tag.
For assay [22], the target named is CPK23 (calcium-dependent protein kinase 23) (Arabidopsis thaliana). Nature of the assay: TAP-MS, N-terminal GS tag.
In assay [23] the target is DNA-binding bromodomain-containing protein, similar to At1g20670 (AT1G76380) (Arabidopsis thaliana). Nature of the assay: TAP-MS, N-terminal GS tag.
The target in assay [24] is SNF2 protein (BRM) (Arabidopsis thaliana). Nature of the assay: TAP-MS, N-terminal GS tag.
Assay [25] concerns the target DNA-binding bromodomain-containing protein (AT1G20670) (Arabidopsis thaliana). Nature of the assay: TAP-MS, N-terminal GS tag.

B1: ARP7-GS (protein, UniProt Q8L4Y5 1-363, looked up)
Actin-related protein 7: MEALVVDAGSKFLKAGAAIPDQSPAMIIPSQMKRMVDDGSSSADNPTTVFEDVTLDPIERGLIRDWDAMEDLLRYVVYTGLGWEEGNEGNILFTDPLCTPKAIREQLVQLMFETFNVSGFYASEQAVLSLYAVGRISGCTVDIGHGKIDIAPVLEGAVQHIASKRFELGGTELTKLFAQELGKTNPSMNLSMSDVEKLKEQYANCAEDEIAYKKTQNCEIEQHTLPDGQVISIGRERYSVGEALFQPSILGLEEHGIVEQLVRIISTVSSENHRQLLENTVLCGGTTSMTGFESRFQKEANLCSSAIRPTLVKPPEYMPENLGMYSAWVGGAILAKVVFPQNQHVTKADYDETGPSVVHRKCF
modifications: C-terminal GS tag
Take B1: the C-GS (times co-purified) in assay [1] worked out at 2; in [2], 2; in assay [3], 1; in assay [4], 1; in [5], 1.

B2: SWI3C-GS (protein, UniProt Q9XI07 1-807, looked up)
SWI/SNF complex subunit SWI3C: MPASEDRRGKWKRKKRGGLSAARKPKQEEEDMEEEDEENNNNNNEEMDDVENADELQQNGGATPDPGLGIGEVVEDSGSRISDFPAVVKRVVIRPHASVMAVVAAERAGLIGETRGQGSLPALENISFGQLQALSTVPADSLDLERSDGSSSAYVISPPPIMDGEGVVKRFGDLVHVLPMHSDWFAPNTVDRLERQVVPQFFSGKSPNHTPESYMEFRNAIVSKYVENPEKTLTISDCQGLVDGVDIEDFARVFRFLDHWGIINYCATAQSHPGPLRDVSDVREDTNGEVNVPSAALTSIDSLIKFDKPNCRHKGGEVYSSLPSLDGDSPDLDIRIREHLCDSHCNHCSRPLPTVYFQSQKKGDILLCCDCFHHGRFVVGHSCLDFVRVDPMKFYGDQDGDNWTDQETLLLLEAVELYNENWVQIADHVGSKSKAQCILHFLRLPVEDGLLDNVEVSGVTNTENPTNGYDHKGTDSNGDLPGYSEQGSDTEIKLPFVKSPNPVMALVAFLASAVGPRVAASCAHESLSVLSEDDRMKSEGMQGKEASLLDGENQQQDGAHKTSSQNGAEAQTPLPQDKVMAAFRAGLSAAATKAKLFADHEEREIQRLSANIVNHQLKRMELKLKQFAEIETLLMKECEQVEKTRQRFSAERARMLSARFGSPGGISPQTNNLQGMSLSTGGNNINSLMHQQHQQQQASATSQPSIIPGFSNNPQVQAQMHFMARQQQQQQQQQQQQQQAFSFGPRLPLNAIQTNAGSTASPNVMFGNNQLNNPAAAGAASINQPSFSHPMVRSSTGSGSGSGLGLN
modifications: C-terminal GS tag
As for B2, the C-GS (times co-purified) in assay [6] was determined as 2; in [7] it was 2; in assay [1] it was 2; in assay [8], 2; in assay [9], 1; in assay [2] it was 1. The C-GS (times co-purified) in [3] was 1; in [10], 2; in assay [11], 2; in assay [12], 2; in assay [13] it was 2; in assay [14], 2.

B3: GS-SWI3C (protein, UniProt Q9XI07 1-807, looked up)
SWI/SNF complex subunit SWI3C: MPASEDRRGKWKRKKRGGLSAARKPKQEEEDMEEEDEENNNNNNEEMDDVENADELQQNGGATPDPGLGIGEVVEDSGSRISDFPAVVKRVVIRPHASVMAVVAAERAGLIGETRGQGSLPALENISFGQLQALSTVPADSLDLERSDGSSSAYVISPPPIMDGEGVVKRFGDLVHVLPMHSDWFAPNTVDRLERQVVPQFFSGKSPNHTPESYMEFRNAIVSKYVENPEKTLTISDCQGLVDGVDIEDFARVFRFLDHWGIINYCATAQSHPGPLRDVSDVREDTNGEVNVPSAALTSIDSLIKFDKPNCRHKGGEVYSSLPSLDGDSPDLDIRIREHLCDSHCNHCSRPLPTVYFQSQKKGDILLCCDCFHHGRFVVGHSCLDFVRVDPMKFYGDQDGDNWTDQETLLLLEAVELYNENWVQIADHVGSKSKAQCILHFLRLPVEDGLLDNVEVSGVTNTENPTNGYDHKGTDSNGDLPGYSEQGSDTEIKLPFVKSPNPVMALVAFLASAVGPRVAASCAHESLSVLSEDDRMKSEGMQGKEASLLDGENQQQDGAHKTSSQNGAEAQTPLPQDKVMAAFRAGLSAAATKAKLFADHEEREIQRLSANIVNHQLKRMELKLKQFAEIETLLMKECEQVEKTRQRFSAERARMLSARFGSPGGISPQTNNLQGMSLSTGGNNINSLMHQQHQQQQASATSQPSIIPGFSNNPQVQAQMHFMARQQQQQQQQQQQQQQAFSFGPRLPLNAIQTNAGSTASPNVMFGNNQLNNPAAAGAASINQPSFSHPMVRSSTGSGSGSGLGLN
modifications: N-terminal GS tag
B3: the N-GS (times co-purified) in assay [15] worked out at 3; in assay [16], 3; in assay [17], 1; in assay [18], 2; in [19], 3; in assay [20], 3. Further, the N-GS (times co-purified) in assay [21] is 3; in [22], 1; in assay [23], 2; in assay [24] it was 3; in [25], 3.
